Test results taken from IntAct's records for PubMed 36638908.

B1: Eukaryotic translation initiation factor 4E1 (Drosophila melanogaster (Fruit fly)), P48598 (parent)
chain: MQSDFHRMKNFANPKSMFKTSAPSTEQGRPEPPTSAAAPAEAKDVKPKEDPQETGEPAGNTATTTAPAGDDAVRTEHLYKHPLMNVWTLWYLENDRSKSWEDMQNEITSFDTVEDFWSLYNHIKPPSEIKLGSDYSLFKKNIRPMWEDAANKQGGRWVITLNKSSKTDLDNLWLDVLLCLIGEAFDHSDQICGAVINIRGKSNKISIWTADGNNEEAALEIGHKLRDALRLGRNNSLQYQLHKDTMVKQGSNVKSIYTL
partner: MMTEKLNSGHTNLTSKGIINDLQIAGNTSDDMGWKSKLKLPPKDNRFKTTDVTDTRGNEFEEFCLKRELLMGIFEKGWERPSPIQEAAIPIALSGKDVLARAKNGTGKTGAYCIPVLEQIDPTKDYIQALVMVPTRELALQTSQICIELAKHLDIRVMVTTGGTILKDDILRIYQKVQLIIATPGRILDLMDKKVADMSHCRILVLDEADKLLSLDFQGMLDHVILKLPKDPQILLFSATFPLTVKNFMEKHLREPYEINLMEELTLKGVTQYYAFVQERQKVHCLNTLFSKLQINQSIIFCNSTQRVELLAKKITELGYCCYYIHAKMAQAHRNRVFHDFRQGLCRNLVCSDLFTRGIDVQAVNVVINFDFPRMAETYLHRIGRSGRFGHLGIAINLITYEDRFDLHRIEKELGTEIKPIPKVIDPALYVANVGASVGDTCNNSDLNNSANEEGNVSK

Variants of: B1
Conditions: with ddx6_drome me31B

Variant | effect of a mutation on the interaction
MQSDFHRMKNFANPKSMFKTSAPSTEQGRPEPPTSAAAPAEAKDVKPKEDPQETGEPAGNTATTTAPAGDDAVRTEHLYKHPLMNVWTLWYLENDRSKSWEDMQNEITSFDTVEDFASLYNHIKPPSEIKLGSDYSLFKKNIRPMWEDAANKQGGRWVITLNKSSKTDLDNLWLDVLLCLIGEAFDHSDQICGAVINIRGKSNKISIWTADGNNEEAALEIGHKLRDALRLGRNNSLQYQLHKDTMVKQGSNVKSIYTL [W117A] | disrupting interaction strength
